Source: patent US20250025541A1

Biological target: IL-4Ra of CTLL-2 cells (UniProt P16382)
Experiment: cell-based or functional assay

Substance | ED50 [ng · mL^-1], residual activity, CTLL-2 proliferation | Inactivation factor (ED50 of the product divided by ED50 of the muIL-4 control), CTLL-2 proliferation
muIL-4 immunogenic product (CRM197) (from UniProt P07750 21-140; P00587 26-560) | 0.62 µg/mL | 370
muIL-4 immunogenic product (KLH) | 0.0215 µg/mL | 21
